In the supplement of paper PMC6757056:
± gives the standard deviation of the averaged measurements.

B1: library; a variant is named by its letters at N, in order (parent)
chain: GCUGUCACCGGUGCUUGGUACGUUAUAUUCAGCCGGUCUGAUGAGUCUNNNNNNAGACGAAACAGC

Columns and labels:
(6R,S)-folinic acid [1] = variants of: B1; assay: FACS-Seq fitted mean relative fluorescence mCherry/BFP without ligand (log10 relative fluorescence); HEK293T overexpressing SLC46A1; higher = higher reporter protein expression; details: without (6R,S)-folinic acid; ligand present: no
Procedure, shortened: (§1)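 Fluorescence comes from a normal fit to bin counts, normalized against controls. HEK293T libraries lentivirally given a ribozyme-switch mCherry reporter and an EF1α-BFP marker were enriched, incubated 48 h with or without ligand, and sorted by mCherry/BFP into 6 bins. Bin genomic DNA was PCR-amplified, barcoded and sequenced on MiSeq. The log10(mCherry/BFP) mean was scaled to five spiked-in control ribozymes.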

(6R,S)-folinic acid [2] = variants of: B1; assay: normalized RNA/DNA level without ligand (relative to sTRSVctl = 100) (log10 (% of sTRSVctl)); HEK293T overexpressing SLC46A1; higher = less ribozyme self-cleavage, higher mRNA level; details: without (6R,S)-folinic acid; ligand present: no
Procedure, shortened: (§2)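 Ribozyme switch library plasmids linked to reporters were introduced into HEK293T cells at 4 µg per 6-well well, with ligand, if any, added 1 h before. Total RNA was extracted with EDTA 72 h later, reverse-transcribed, amplified, barcoded and sequenced. RNA level was computed from RNA over DNA reads relative to a spiked-in non-cleaving sequence or the top sequences, then scaled and log-transformed. The top set was 25 sequences, values were ×100 and log10, and the cutoff was ≥100 DNA reads.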

(6R,S)-folinic acid [3] = variants of: B1; assay: FACS-Seq fitted mean relative fluorescence mCherry/BFP with ligand (log10 relative fluorescence); HEK293T overexpressing SLC46A1; ligand concentration (+) FACS-Seq: 6 mM; higher = higher reporter protein expression; details: with (6R,S)-folinic acid; ligand present: yes
Procedure, shortened: as §1

(6R,S)-folinic acid [4] = variants of: B1; assay: normalized RNA/DNA level with ligand (relative to sTRSVctl = 100) (log10 (% of sTRSVctl)); HEK293T overexpressing SLC46A1; ligand concentration (+) RNA-Seq: 6 mM; higher = less ribozyme self-cleavage, higher mRNA level; details: with (6R,S)-folinic acid; ligand present: yes
Procedure, shortened: as §2

Row | Variant | FACS-Seq fitted mean (log10) ((6R,S)-folinic acid [1]) | normalized RNA/DNA level without ligand (log10) ((6R,S)-folinic acid [2]) | FACS-Seq fitted mean (log10) ((6R,S)-folinic acid [3]) | normalized RNA/DNA level with ligand (log10) ((6R,S)-folinic acid [4])
1 | CUAGGU | 0.652 ± 0.16 | 2.024 ± 0.0033 | 0.694 ± 0.027 | 2.05 ± 0.028
2 | AUAGUA | 0.293 ± 0.042 | 1.93 ± 0.027 | 0.273 ± 0.21 | 1.97 ± 0.019
3 | AUAGUG | 0.15 ± 0.12 | 1.59 ± 0.023 | 0.795 ± 0.071 | 1.93 ± 0.024
4 | GUAGUG | 0.359 ± 0.012 | 1.856 ± 0.0051 | 0.637 ± 0.19 | 1.99 ± 0.054
5 | AUAUAC | 0.205 ± 0.083 | 1.994 ± 0.015 | 0.279 ± 0.065 | 2 ± 0.041
6 | UUAUAC | 0.677 ± 0.11 | 1.994 ± 0.012 | 0.593 ± 0.097 | 1.99 ± 0.036
7 | AUAUAG | 0.309 ± 0.028 | 1.91 ± 0.021 | 0.295 ± 0.25 | 2 ± 0.022
8 | CUAUAG | 0.0808 ± 0.1 | 1.915 ± 0.017 | 0.35 ± 0.15 | 2 ± 0.029
9 | GUAUAG | 0.256 ± 0.031 | 1.94 ± 0.0061 | 0.546 ± 0.096 | 2.01 ± 0.048
10 | UUAUAG | 0.192 ± 0.026 | 1.8081 ± 0.0015 | 0.396 ± 0.16 | 1.99 ± 0.034
11 | AUAUAU | 0.272 ± 0.026 | 1.947 ± 0.011 | 0.459 ± 0.073 | 1.99 ± 0.02
12 | GUAUCA | 0.376 ± 0.03 | 2.045 ± 0.01 | 0.586 ± 0.01 | 2.04 ± 0.03
13 | AUAUCC | 0.455 ± 0.027 | 2.0352 ± 0.00073 | 0.839 ± 0.019 | 2.03 ± 0.039
14 | UUAUCU | 0.453 ± 0.099 | 2.0125 ± 0.0014 | 0.133 ± 0.1 | 2.03 ± 0.0072
15 | AUAUGA | 0.209 ± 0.013 | 1.976 ± 0.004 | 0.342 ± 0.096 | 2.01 ± 0.034
16 | UUAUGA | 0.0124 ± 0.043 | 1.9284 ± 0.0007 | -0.0229 ± 0.25 | 2.01 ± 0.027
17 | GUAUGC | 0.271 ± 0.067 | 1.891 ± 0.015 | 0.404 ± 0.15 | 2 ± 0.03
18 | AUAUGG | 0.12 ± 0.066 | 1.867 ± 0.0088 | 0.307 ± 0.19 | 2 ± 0.034

Row | Variant | FACS-Seq fitted mean (log10) ((6R,S)-folinic acid [1]) | normalized RNA/DNA level without ligand (log10) ((6R,S)-folinic acid [2]) | FACS-Seq fitted mean (log10) ((6R,S)-folinic acid [3]) | normalized RNA/DNA level with ligand (log10) ((6R,S)-folinic acid [4])
19 | AUAUGU | 0.367 ± 0.12 | 1.9129 ± 0.00064 | 0.417 ± 0.46 | 2.0205 ± 0.0011
20 | CUAUGU | 0.286 ± 0.071 | 2.01 ± 0.023 | 0.152 ± 0.23 | 2.023 ± 0.014
21 | UUAUGU | 0.389 ± 0.12 | 1.919 ± 0.0091 | 0.413 ± 0.13 | 1.987 ± 0.019
22 | AUAUUC | -0.738 ± 0.81 | 2.035 ± 0.019 | -1.5 ± 0.9 | 2.031 ± 0.01
23 | AUAUUG | 0.176 ± 0.067 | 1.896 ± 0.0041 | 0.136 ± 0.13 | 1.97 ± 0.011
24 | CUAUUG | 0.309 ± 0.21 | 2.023 ± 0.011 | 0.316 ± 0.2 | 2.01 ± 0.0053
25 | UUAUUG | 0.469 ± 0.069 | 1.82 ± 0.035 | 0.551 ± 0.16 | 1.97 ± 0.038
26 | CUAUUU | 0.149 ± 0.064 | 1.984 ± 0.0088 | -0.0506 ± 0.019 | 1.984 ± 0.016
27 | GUAUUU | 0.142 ± 0.24 | 2 ± 0.022 | 0.173 ± 0.0069 | 2.01 ± 0.033
28 | UUAUUU | 0.415 ± 0.024 | 1.982 ± 0.0056 | 0.569 ± 0.26 | 2 ± 0.022
29 | UUCAAA | 0.198 ± 0.18 | 1.972 ± 0.0074 | 0.0558 ± 0.029 | 2.009 ± 0.019
30 | GUCAAG | 0.249 ± 0.027 | 1.974 ± 0.0083 | 0.168 ± 0.075 | 2.03 ± 0.045
31 | UUCAAG | 0.372 ± 0.12 | 1.85 ± 0.014 | 0.562 ± 0.035 | 2.01 ± 0.034
32 | CUCAAU | 0.0874 ± 0.13 | 1.97 ± 0.036 | 0.0541 ± 0.42 | 1.971 ± 0.011
33 | UUCAAU | 0.465 ± 0.017 | 2.004 ± 0.013 | 0.748 ± 0.3 | 1.98 ± 0.052
34 | AUCACA | 0.256 ± 0.074 | 2.004 ± 0.0041 | 0.0653 ± 0.038 | 2.02 ± 0.032
35 | GUCACC | 0.379 ± 0.15 | 2.07 ± 0.021 | 0.061 ± 0.042 | 2.063 ± 0.013
36 | GUCACG | 0.0918 ± 0.029 | 2.024 ± 0.0084 | 0.228 ± 0.096 | 2.042 ± 0.015
